Km, kcat and kcat/Km data for two proteins are collected here from patent US20060014193A1, “Nucleoside phosphoramidates and nucleoside phosphoramidases” (priority 2004, published 2006).

Substrate in data set [1]: NCCc1c[nH]c2ccccc12
Description: Phosphoramidase fluorescence assay. The note with it: other: Table 5; pH 7.2; 25.0 °C. The format is biochemical, E. coli.

Substrate in data set [2]: NCCc1c[nH]c2ccccc12
Description: Phosphoramidase fluorescence assay. The format is biochemical, human. The note with it: other: Table 5; pH 7.2; 25.0 °C. Here is the method: The fluorescence of tryptophan (ex, 280 nm, em 360 nm) can be quenched when covalently attached to a nucleoside monophosphate, and nucleoside phosphoramidates of D- and L-tryptophan and tryptamine are excellent fluorescent substrates for hHINT1. Typically, after measurement of initial substrate fluorescence, hHINT1 was added to the reaction solution (HEPES buffer, pH 7.2, 25° C.) and the change in fluorescence over 2 min was determined by converting the slope into μM of substrate hydrolyzed per μg of enzyme per min with a standard curve. […] Based on the generation of chimeric polypeptides between the hHINTI and the hinT of E. coli, the preference for D enantiomers by the human HINT1 polypeptide is likely conferred by the C-terminus amino acids (e.g., the C-terminus 5, 6, 5 7, 8, 9, 10, or 11 amino acids) of the hHINT1 enzyme. […] In addition, both D-tryptophan phosphoramidates of cytosine and uridine were substrates. Initial rates were determined 10 during the first 10-20% of the reaction for variable substrate concentrations. The Michaelis-Menten constants, kcat and Km, for selected nucleoside phosphosphoramidates have been determined. (Table 4). As observed in the initial screening assay, for phosphoramidates containing L-tryptophan, hHINT1 has a 7-fold greater preference for AMP phosphoramidates of L-tryptophan than GMP.

B1: E. coli hinT (Escherichia coli K-12) (protein)
chain: MAEETIFSKIIRREIPSDIVYQDDLVTAFRDISPQAPTHILIIPNILIPTVNDVSAEHEQALGRMITVAAKIAEQEGIAEDGYRLIMNTNRHGGQEVYHIHMHLLGGRPLGPMLAHKGL
B1: in data set [1], the Km – broadly, the substrate concentration at which the rate is half of its maximum – was determined as 30.1 ± 2.39 µM; the kcat (as a rule, the maximal rate divided by the concentration of active sites) came to 0.45 ± 0.04 s⁻¹; the kcat/Km (usually the turnover number divided by the Michaelis constant) stood at 15000 M⁻¹ s⁻¹.

B2: hHINT1 (Homo sapiens) (protein)
chain: MADEIAKAQVARPGGDTIFGKIIRKEIPAKIIFEDDRCLAFHDISPQAPTHFLVIPKKHISQISVAEDDDESLLGHLMIVGKKCAADLGLNKGYRMVVNEGSDGGQSVYHVHLHVLGGRQMHWPPG
B2: in data set [2], the Km stood at 1.74 ± 0.22 µM, the kcat was 0.97 ± 0.11 s⁻¹ and the kcat/Km worked out at 558000 M⁻¹ s⁻¹.
